Experimental data from paper PMC3941056 (The Journal of Cell Biology, 2014).

Biological target: the molecule itself
Experiment: fluorescence correlation spectroscopy

B1: HsSAS-6–[F131E] with a C-terminal GFP (natural protein, human, UniProt Q6UVJ0 1-657, looked up)
chain: MSQVLFHQLVPLQVKCKDCEERRVSIRMSIELQSVSNPVHRKDLVIRLTDDTDPFFLYNLVISEEDFQSLKFQQGLLVDFLAFPQKFIDLLQQCTQEHAKEIPRFLLQLVSPAAILDNSPAFLNVVETNPEKHLTHLSLKLLPGNDVEIKKFLAGCLKCSKEEKLSLMQSLDDATKQLDFTRKTLAEKKQELDKLRNEWASHTAALTNKHSQELTNEKEKALQAQVQYQQQHEQQKKDLEILHQQNIHQLQNRLSELEAANKDLTERKYKGDSTIRELKAKLSGVEEELQRTKQEVLSLRRENSTLDVECHEKEKHVNQLQTKVAVLEQEIKDKDQLVLRTKEAFDTIQEQKVVLEENGEKNQVQLGKLEATIKSLSAELLKANEIIKKLQGDLKTLMGKLKLKNTVTIQQEKLLAEKEEKLQKEQKELQDVGQSLRIKEQEVCKLQEQLEATVKKLEESKQLLKNNEKLITWLNKELNENQLVRKQDVLGPSTTPPAHSSSNTIRSGISPNLNVVDGRLTYPTCGIGYPVSSAFAFQNTFPHSISAKNTSHPGSGTKVQFNLQFTKPNASLGDVQSGATISMPCSTDKENGENVGLESKYLKKREDSIPLRGLSQNLFSNSDHQRDGTLGALHTSSKPTALPSASSAYFPGQLPNS
- brightness relative to monomeric GFP: ~1.6 fold
- stoichiometry N: 2
